Laboratory results reported in the supplement of paper PMC11811203.

B1: THAP1; numbered along this chain (parent)
chain: MVQSCSAYGCKNRYDKDKPVSFHKFPLTRPSLCKEWEAAVRRKNFKPTKYSSICSEHFTPDCFKRECNNKLLKENAVPTIFLCTEPHDKKEDLLEPQEQLPPPPLPPPVSQVDAAIGLLMPPLQTPVNLSVFCDHNYTVEDTMHQRKRIHQLEQQVEKLRKKLKTAQQRCRRQERQLEKLKEVVHFQKEKDDVSERGYVILPNDYFEIVEVPA

Variants of: B1
Assay: THAP1 transcriptional activity (GFP+/GFP- enrichment relative to wild-type constructs) (ratio to WT); higher = more THAP1 activity (PSMB5 reporter activation)
Conditions: with PSMB5 promoter-GFP reporter
Protocol: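 Deep mutational scan of human THAP1. Site-saturation single amino acid variant library (residues 2-213) was expressed by lentivirus at MOI ~0.3 in THAP1-knockout HEK-293T cells carrying an endogenous PSMB5 promoter-GFP knock-in reporter. Five days post-transduction, BFP+ cells were FACS-sorted into GFP dim and GFP bright populations and variants were counted by Illumina sequencing. Activity is the GFP-bright/GFP-dim read fold change, mean of 2 replicates, divided by the mean fold change of wild-type (synonymous) constructs in the same screen pool; WT = 1.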

Compared with MVQSCSAYGCKNRYDKDKPVSFHKFPLTRPSLCKEWEAAVMRKNFKPTKYSSICSEHFTPDCFKRECNNKLLKENAVPTIFLCTEPHDKKEDLLEPQEQLPPPPLPPPVSQVDAAIGLLMPPLQTPVNLSVFCDHNYTVEDTMHQRKRIHQLEQQVEKLRKKLKTAQQRCRRQERQLEKLKEVVHFQKEKDDVSERGYVILPNDYFEIVEVPA [R41M], MVQSCSAYGCKNRYDKDKPVSFHKFPLTRPSLCKEWEAAVSRKNFKPTKYSSICSEHFTPDCFKRECNNKLLKENAVPTIFLCTEPHDKKEDLLEPQEQLPPPPLPPPVSQVDAAIGLLMPPLQTPVNLSVFCDHNYTVEDTMHQRKRIHQLEQQVEKLRKKLKTAQQRCRRQERQLEKLKEVVHFQKEKDDVSERGYVILPNDYFEIVEVPA [R41S] is higher in THAP1 transcriptional activity: 0.475 for the first, 0.809 for the second.

Compared with MVQSCSAYGCKNRYDKDKPVSFHKFPLTRPSLCKEWEAAVVRKNFKPTKYSSICSEHFTPDCFKRECNNKLLKENAVPTIFLCTEPHDKKEDLLEPQEQLPPPPLPPPVSQVDAAIGLLMPPLQTPVNLSVFCDHNYTVEDTMHQRKRIHQLEQQVEKLRKKLKTAQQRCRRQERQLEKLKEVVHFQKEKDDVSERGYVILPNDYFEIVEVPA [R41V], MVQSCSAYGCKNRYDKDKPVSFHKFPLTRPSLCKEWEAAVPRKNFKPTKYSSICSEHFTPDCFKRECNNKLLKENAVPTIFLCTEPHDKKEDLLEPQEQLPPPPLPPPVSQVDAAIGLLMPPLQTPVNLSVFCDHNYTVEDTMHQRKRIHQLEQQVEKLRKKLKTAQQRCRRQERQLEKLKEVVHFQKEKDDVSERGYVILPNDYFEIVEVPA [R41P] is lower in THAP1 transcriptional activity: 0.131 for the first, 0.0904 for the second.

Compared with MVQSCSAYGCKNRYDKDKPVSFHKFPLTRPSLCKEWEAAVTRKNFKPTKYSSICSEHFTPDCFKRECNNKLLKENAVPTIFLCTEPHDKKEDLLEPQEQLPPPPLPPPVSQVDAAIGLLMPPLQTPVNLSVFCDHNYTVEDTMHQRKRIHQLEQQVEKLRKKLKTAQQRCRRQERQLEKLKEVVHFQKEKDDVSERGYVILPNDYFEIVEVPA [R41T], MVQSCSAYGCKNRYDKDKPVSFHKFPLTRPSLCKEWEAAVQRKNFKPTKYSSICSEHFTPDCFKRECNNKLLKENAVPTIFLCTEPHDKKEDLLEPQEQLPPPPLPPPVSQVDAAIGLLMPPLQTPVNLSVFCDHNYTVEDTMHQRKRIHQLEQQVEKLRKKLKTAQQRCRRQERQLEKLKEVVHFQKEKDDVSERGYVILPNDYFEIVEVPA [R41Q] is higher in THAP1 transcriptional activity: 0.171 for the first, 0.878 for the second.

Compared with MVQSCSAYGCKNRYDKDKPVSFHKFPLTRPSLCKEWEAAVNRKNFKPTKYSSICSEHFTPDCFKRECNNKLLKENAVPTIFLCTEPHDKKEDLLEPQEQLPPPPLPPPVSQVDAAIGLLMPPLQTPVNLSVFCDHNYTVEDTMHQRKRIHQLEQQVEKLRKKLKTAQQRCRRQERQLEKLKEVVHFQKEKDDVSERGYVILPNDYFEIVEVPA [R41N], MVQSCSAYGCKNRYDKDKPVSFHKFPLTRPSLCKEWEAAVKRKNFKPTKYSSICSEHFTPDCFKRECNNKLLKENAVPTIFLCTEPHDKKEDLLEPQEQLPPPPLPPPVSQVDAAIGLLMPPLQTPVNLSVFCDHNYTVEDTMHQRKRIHQLEQQVEKLRKKLKTAQQRCRRQERQLEKLKEVVHFQKEKDDVSERGYVILPNDYFEIVEVPA [R41K] is higher in THAP1 transcriptional activity: 0.809 for the first, 1.05 for the second.

Compared with MVQSCSAYGCKNRYDKDKPVSFHKFPLTRPSLCKEWEAAVYRKNFKPTKYSSICSEHFTPDCFKRECNNKLLKENAVPTIFLCTEPHDKKEDLLEPQEQLPPPPLPPPVSQVDAAIGLLMPPLQTPVNLSVFCDHNYTVEDTMHQRKRIHQLEQQVEKLRKKLKTAQQRCRRQERQLEKLKEVVHFQKEKDDVSERGYVILPNDYFEIVEVPA [R41Y], MVQSCSAYGCKNRYDKDKPVSFHKFPLTRPSLCKEWEAAVWRKNFKPTKYSSICSEHFTPDCFKRECNNKLLKENAVPTIFLCTEPHDKKEDLLEPQEQLPPPPLPPPVSQVDAAIGLLMPPLQTPVNLSVFCDHNYTVEDTMHQRKRIHQLEQQVEKLRKKLKTAQQRCRRQERQLEKLKEVVHFQKEKDDVSERGYVILPNDYFEIVEVPA [R41W] is lower in THAP1 transcriptional activity: 0.274 for the first, 0.182 for the second.

First: MVQSCSAYGCKNRYDKDKPVSFHKFPLTRPSLCKEWEAAVLRKNFKPTKYSSICSEHFTPDCFKRECNNKLLKENAVPTIFLCTEPHDKKEDLLEPQEQLPPPPLPPPVSQVDAAIGLLMPPLQTPVNLSVFCDHNYTVEDTMHQRKRIHQLEQQVEKLRKKLKTAQQRCRRQERQLEKLKEVVHFQKEKDDVSERGYVILPNDYFEIVEVPA [R41L]
Second: MVQSCSAYGCKNRYDKDKPVSFHKFPLTRPSLCKEWEAAVRLKNFKPTKYSSICSEHFTPDCFKRECNNKLLKENAVPTIFLCTEPHDKKEDLLEPQEQLPPPPLPPPVSQVDAAIGLLMPPLQTPVNLSVFCDHNYTVEDTMHQRKRIHQLEQQVEKLRKKLKTAQQRCRRQERQLEKLKEVVHFQKEKDDVSERGYVILPNDYFEIVEVPA [R42L]
The THAP1 transcriptional activity of the first is higher: 0.233 for the first, 0.104 for the second.

First: MVQSCSAYGCKNRYDKDKPVSFHKFPLTRPSLCKEWEAAVRGKNFKPTKYSSICSEHFTPDCFKRECNNKLLKENAVPTIFLCTEPHDKKEDLLEPQEQLPPPPLPPPVSQVDAAIGLLMPPLQTPVNLSVFCDHNYTVEDTMHQRKRIHQLEQQVEKLRKKLKTAQQRCRRQERQLEKLKEVVHFQKEKDDVSERGYVILPNDYFEIVEVPA [R42G]
Second: MVQSCSAYGCKNRYDKDKPVSFHKFPLTRPSLCKEWEAAVRPKNFKPTKYSSICSEHFTPDCFKRECNNKLLKENAVPTIFLCTEPHDKKEDLLEPQEQLPPPPLPPPVSQVDAAIGLLMPPLQTPVNLSVFCDHNYTVEDTMHQRKRIHQLEQQVEKLRKKLKTAQQRCRRQERQLEKLKEVVHFQKEKDDVSERGYVILPNDYFEIVEVPA [R42P]
The THAP1 transcriptional activity of the first is lower: 0.0813 for the first, 0.0977 for the second.

First: MVQSCSAYGCKNRYDKDKPVSFHKFPLTRPSLCKEWEAAVRTKNFKPTKYSSICSEHFTPDCFKRECNNKLLKENAVPTIFLCTEPHDKKEDLLEPQEQLPPPPLPPPVSQVDAAIGLLMPPLQTPVNLSVFCDHNYTVEDTMHQRKRIHQLEQQVEKLRKKLKTAQQRCRRQERQLEKLKEVVHFQKEKDDVSERGYVILPNDYFEIVEVPA [R42T]
Second: MVQSCSAYGCKNRYDKDKPVSFHKFPLTRPSLCKEWEAAVRKKNFKPTKYSSICSEHFTPDCFKRECNNKLLKENAVPTIFLCTEPHDKKEDLLEPQEQLPPPPLPPPVSQVDAAIGLLMPPLQTPVNLSVFCDHNYTVEDTMHQRKRIHQLEQQVEKLRKKLKTAQQRCRRQERQLEKLKEVVHFQKEKDDVSERGYVILPNDYFEIVEVPA [R42K]
The THAP1 transcriptional activity of the first is lower: 0.103 for the first, 0.189 for the second.

Going from MVQSCSAYGCKNRYDKDKPVSFHKFPLTRPSLCKEWEAAVRDKNFKPTKYSSICSEHFTPDCFKRECNNKLLKENAVPTIFLCTEPHDKKEDLLEPQEQLPPPPLPPPVSQVDAAIGLLMPPLQTPVNLSVFCDHNYTVEDTMHQRKRIHQLEQQVEKLRKKLKTAQQRCRRQERQLEKLKEVVHFQKEKDDVSERGYVILPNDYFEIVEVPA [R42D] to MVQSCSAYGCKNRYDKDKPVSFHKFPLTRPSLCKEWEAAVRCKNFKPTKYSSICSEHFTPDCFKRECNNKLLKENAVPTIFLCTEPHDKKEDLLEPQEQLPPPPLPPPVSQVDAAIGLLMPPLQTPVNLSVFCDHNYTVEDTMHQRKRIHQLEQQVEKLRKKLKTAQQRCRRQERQLEKLKEVVHFQKEKDDVSERGYVILPNDYFEIVEVPA [R42C], the THAP1 transcriptional activity rises from 0.0738 to 0.114.

Compared with MVQSCSAYGCKNRYDKDKPVSFHKFPLTRPSLCKEWEAAVRFKNFKPTKYSSICSEHFTPDCFKRECNNKLLKENAVPTIFLCTEPHDKKEDLLEPQEQLPPPPLPPPVSQVDAAIGLLMPPLQTPVNLSVFCDHNYTVEDTMHQRKRIHQLEQQVEKLRKKLKTAQQRCRRQERQLEKLKEVVHFQKEKDDVSERGYVILPNDYFEIVEVPA [R42F], MVQSCSAYGCKNRYDKDKPVSFHKFPLTRPSLCKEWEAAVRSKNFKPTKYSSICSEHFTPDCFKRECNNKLLKENAVPTIFLCTEPHDKKEDLLEPQEQLPPPPLPPPVSQVDAAIGLLMPPLQTPVNLSVFCDHNYTVEDTMHQRKRIHQLEQQVEKLRKKLKTAQQRCRRQERQLEKLKEVVHFQKEKDDVSERGYVILPNDYFEIVEVPA [R42S] is higher in THAP1 transcriptional activity: 0.116 for the first, 0.158 for the second.

First: MVQSCSAYGCKNRYDKDKPVSFHKFPLTRPSLCKEWEAAVRAKNFKPTKYSSICSEHFTPDCFKRECNNKLLKENAVPTIFLCTEPHDKKEDLLEPQEQLPPPPLPPPVSQVDAAIGLLMPPLQTPVNLSVFCDHNYTVEDTMHQRKRIHQLEQQVEKLRKKLKTAQQRCRRQERQLEKLKEVVHFQKEKDDVSERGYVILPNDYFEIVEVPA [R42A]
Second: MVQSCSAYGCKNRYDKDKPVSFHKFPLTRPSLCKEWEAAVRQKNFKPTKYSSICSEHFTPDCFKRECNNKLLKENAVPTIFLCTEPHDKKEDLLEPQEQLPPPPLPPPVSQVDAAIGLLMPPLQTPVNLSVFCDHNYTVEDTMHQRKRIHQLEQQVEKLRKKLKTAQQRCRRQERQLEKLKEVVHFQKEKDDVSERGYVILPNDYFEIVEVPA [R42Q]
The THAP1 transcriptional activity of the first is lower: 0.127 for the first, 0.202 for the second.

Compared with MVQSCSAYGCKNRYDKDKPVSFHKFPLTRPSLCKEWEAAVREKNFKPTKYSSICSEHFTPDCFKRECNNKLLKENAVPTIFLCTEPHDKKEDLLEPQEQLPPPPLPPPVSQVDAAIGLLMPPLQTPVNLSVFCDHNYTVEDTMHQRKRIHQLEQQVEKLRKKLKTAQQRCRRQERQLEKLKEVVHFQKEKDDVSERGYVILPNDYFEIVEVPA [R42E], MVQSCSAYGCKNRYDKDKPVSFHKFPLTRPSLCKEWEAAVRMKNFKPTKYSSICSEHFTPDCFKRECNNKLLKENAVPTIFLCTEPHDKKEDLLEPQEQLPPPPLPPPVSQVDAAIGLLMPPLQTPVNLSVFCDHNYTVEDTMHQRKRIHQLEQQVEKLRKKLKTAQQRCRRQERQLEKLKEVVHFQKEKDDVSERGYVILPNDYFEIVEVPA [R42M] is lower in THAP1 transcriptional activity: 0.118 for the first, 0.0797 for the second.

Compared with MVQSCSAYGCKNRYDKDKPVSFHKFPLTRPSLCKEWEAAVRVKNFKPTKYSSICSEHFTPDCFKRECNNKLLKENAVPTIFLCTEPHDKKEDLLEPQEQLPPPPLPPPVSQVDAAIGLLMPPLQTPVNLSVFCDHNYTVEDTMHQRKRIHQLEQQVEKLRKKLKTAQQRCRRQERQLEKLKEVVHFQKEKDDVSERGYVILPNDYFEIVEVPA [R42V], MVQSCSAYGCKNRYDKDKPVSFHKFPLTRPSLCKEWEAAVRHKNFKPTKYSSICSEHFTPDCFKRECNNKLLKENAVPTIFLCTEPHDKKEDLLEPQEQLPPPPLPPPVSQVDAAIGLLMPPLQTPVNLSVFCDHNYTVEDTMHQRKRIHQLEQQVEKLRKKLKTAQQRCRRQERQLEKLKEVVHFQKEKDDVSERGYVILPNDYFEIVEVPA [R42H] is lower in THAP1 transcriptional activity: 0.136 for the first, 0.105 for the second.

First: MVQSCSAYGCKNRYDKDKPVSFHKFPLTRPSLCKEWEAAVRIKNFKPTKYSSICSEHFTPDCFKRECNNKLLKENAVPTIFLCTEPHDKKEDLLEPQEQLPPPPLPPPVSQVDAAIGLLMPPLQTPVNLSVFCDHNYTVEDTMHQRKRIHQLEQQVEKLRKKLKTAQQRCRRQERQLEKLKEVVHFQKEKDDVSERGYVILPNDYFEIVEVPA [R42I]
Second: MVQSCSAYGCKNRYDKDKPVSFHKFPLTRPSLCKEWEAAVRWKNFKPTKYSSICSEHFTPDCFKRECNNKLLKENAVPTIFLCTEPHDKKEDLLEPQEQLPPPPLPPPVSQVDAAIGLLMPPLQTPVNLSVFCDHNYTVEDTMHQRKRIHQLEQQVEKLRKKLKTAQQRCRRQERQLEKLKEVVHFQKEKDDVSERGYVILPNDYFEIVEVPA [R42W]
The THAP1 transcriptional activity of the first is higher: 0.181 for the first, 0.128 for the second.
